The record followed here is patent US20250066503A1, “CELL INJURY INDUCING THERAPEUTIC DRUG FOR USE IN CANCER THERAPY” (CHUGAI SEIYAKU KABUSHIKI KAISHA, priority 2016, published 2025).

One assay concerns the target human GPC3 (Homo sapiens, UniProt P51654). The assay can be described thus: Affinity for human GPC3 by surface plasmon resonance (Biacore T200). The class given is binding. The procedure:
The activity to bind human GPC3 when using GL4 (SEQ ID NO: 41) and L0000 (SEQ ID NO: 53) as the L-chain variable regions was evaluated. This was performed using the molecular form of a single-arm antibody having a single Fab at the Fc region of a human IgG1 heterodimerized by the knobs-into-hole technique. H0000 (SEQ ID NO: 40) was used for the anti-GPC3 antibody H-chain variable region.
The affinity and binding rate constants of an anti-GPC3 antibody for an antigen were measured by the multi-cycle kinetics method of a surface plasmon resonance assay using Biacore™-T200 (GE Healthcare Japan). HBS-EP+(GE Healthcare Japan) was used for the running buffer, and an amine coupling kit (GE Healthcare Japan) was used to covalently bind Protein A/G to the CM5 chip (carboxymethyl dextran-coated chip). Each anti-GPC3 antibody was prepared so that approximately 100 RU will be captured by Protein A/G. Human GPC3 used as the analyte was prepared at 8, 16, 32, 64, and 128 nM using HBS-EP+. Measurements were carried out by first allowing Protein A/G to capture the antibody solution, and then injecting the human GPC3 solution at a flow rate of […] for three minutes to allow reaction to take place. Then, the solution was switched to HBS-EP+ and the dissociation phase was measured for 15 minutes. After completion of the dissociation phase measurement, the sensor chip was regenerated by washing with 10 mM Gly-HCl at pH 1.5. Measurement at the concentration of 0 was similarly carried out by allowing Protein A/G to capture the antibody solution, performing a three-minute HBS-EP+ injection to allow reaction to take place, and then switching to HBS-EP+ to measure the dissociation phase for 15 minutes. […]
(§1) CDR and FR were determined according to the Kabat definition (Kabat numbering).
First, point mutations were introduced into CDR1, CDR2, and CDR3 of the anti-human GPC3 bispecific antibody sequence produced in Reference Example 2, H0000-ERY27_HK (SEQ ID NO: 54), to prepare modified antibodies. Next, the affinity of these modified antibodies for soluble human GPC3 was determined.

Assay [1] has as its target T1, soluble human CD3 epsilon chain (human, UniProt P07766 23-126).
T1 construct: also called CD3ε
The assay can be described thus: SPR, human CD3 on the chip. The procedure:
(§2) The activity to bind human CD3 when using hCE115HA (SEQ ID NO: 52) as the H chain variable region and L0000 (SEQ ID NO: 53) as the L-chain variable region was evaluated. This was performed using the molecular form of a single-arm antibody having a single Fab at the Fc region of a human IgG1 heterodimerized by the knobs-into-hole technique.
(§3) The affinity and binding rate constants of an anti-CD3 antibody for an antigen were measured by the single-cycle kinetics method of a surface plasmon resonance assay using Biacore™-T200 (GE Healthcare Japan). HBS-EP+(GE Healthcare Japan) was used for the running buffer, and an amine coupling kit (GE Healthcare Japan) was used to covalently bind human CD3 to the CM4 chip (carboxymethyl dextran-coated chip). The anti-CD3 antibody used as the analyte was prepared at 5 and […] using HBS-EP+. Measurements were carried out by first injecting each of the 5- and 20-g/mL anti-CD3 antibody solutions for three minutes continuously at a flow rate of 20 L/min to allow reaction to take place. Then, the solution was switched to HBS-EP+ and the dissociation phase was measured for 3 minutes. After completion of the dissociation phase measurement, the sensor chip was regenerated by washing with 10 mM Gly-HCl at pH 1.5. Measurement at the concentration of 0 was carried out by performing each of the three-minute HBS-EP+ injections twice successively to allow reaction to take place, and then switching to HBS-EP+ to measure the dissociation phase for 3 minutes. After completion of the dissociation phase measurement, the sensor chip was regenerated by washing with 10 mM Gly-HCl at pH 1.5. A data analysis software exclusively for Biacore, Biacore T200 Evaluation Software Version 1.0, was used to perform kinetic analyses to calculate the binding rate constant (ka), dissociation rate constant (kd), and the rate constant ratio from the obtained sensorgrams.
On the technique in general: In SPR one partner is held on a chip, and binding of the other changes the refractive index at the surface.

In assay [2] the target is human CD3 (soluble human CD3ε chain) (Homo sapiens, UniProt P07766). The assay can be described thus: Affinity for human CD3 by surface plasmon resonance (Biacore T200). It is filed as binding. The procedure:
as §2, §3, §1
First, point mutations were introduced into FR1, FR2, FR3, CDR1, CDR2, and CDR3 of the humanized anti-human CD3ε chain antibody sequence produced in Reference Example 2, hCE115HA-ERY27_HE (SEQ ID NO: 55), to prepare modified antibodies. Next, the affinity of these modified antibodies for the soluble human CD3ε chain was determined.

The mark [3] stands for this setting: single-arm antibody, multi-cycle kinetics.
Setting [4] is: single-arm antibody, single-cycle kinetics.

T1 sequence (P07766 23-126 limits assumed): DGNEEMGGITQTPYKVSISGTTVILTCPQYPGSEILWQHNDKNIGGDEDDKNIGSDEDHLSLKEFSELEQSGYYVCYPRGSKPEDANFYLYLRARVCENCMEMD
Chain of human CD3 (soluble human CD3ε chain) (P07766 23-126 limits assumed): as above
Chain of human GPC3 (P51654 25-563 limits assumed): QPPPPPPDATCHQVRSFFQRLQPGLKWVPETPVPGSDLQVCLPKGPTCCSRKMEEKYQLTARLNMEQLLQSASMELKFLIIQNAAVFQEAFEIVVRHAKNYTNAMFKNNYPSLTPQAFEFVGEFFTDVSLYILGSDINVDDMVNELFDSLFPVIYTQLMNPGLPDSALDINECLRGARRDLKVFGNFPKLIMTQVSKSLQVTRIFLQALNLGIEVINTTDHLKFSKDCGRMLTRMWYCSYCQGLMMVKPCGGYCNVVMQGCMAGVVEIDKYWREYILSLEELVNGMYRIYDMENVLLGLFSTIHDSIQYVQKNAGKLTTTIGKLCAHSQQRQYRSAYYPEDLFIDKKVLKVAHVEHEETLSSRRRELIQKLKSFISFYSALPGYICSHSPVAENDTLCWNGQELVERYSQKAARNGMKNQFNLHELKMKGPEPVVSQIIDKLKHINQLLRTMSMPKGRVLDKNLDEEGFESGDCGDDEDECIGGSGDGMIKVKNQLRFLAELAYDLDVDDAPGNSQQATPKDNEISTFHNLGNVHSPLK

B1: H0000/GL4: single-arm anti-GPC3 antibody, H0000 (SEQ ID NO: 40) with GL4 (SEQ ID NO: 41) (antibody, V domains shown)
VH: QVQLVQSGAEVKKPGASVKVSCKASGYTFTDYEMHWIRQPPGQGLEWIGAIDPKTGDTAYSQKFKGRVTLTADKSTSTAYMELSSLTSEDTAVYYCTRFYSYTYWGQGTLVTVSS
VL: DIVMTQSPLSLPVTPGEPASISCRSSQSLVHSNRNTYLHWYQQKPGQAPRLLIYKVSNRFSGVPDRFSGSGSGTDFTLKISRVEAEDVGVYYCSQNTHVPPTFGQGTKLEIK
modifications: An artificially generated sequence
In the case of B1, in the assay with human GPC3 (setting [3]), the “Affinity for human GPC3 ka” value was determined as 430000 M⁻¹ s⁻¹ and the “Affinity for human GPC3 kd” value is 0.0018 s⁻¹.

B2: rCE115H/rCE115L single-arm antibody (antibody, human IgG1, V domains shown)
VH: EVQLVETGGSLVQPGKSLKLTCATSGFTFSNAWMHWVRQSPEKQLEWVAQIKAKSNNYATYYAESVKGRFTISRDDSKSNIYLQMNSLKEEDTAVYYCRYVHYGAYYGVDAWGQGTSVTVSS
VL: DVVMTQTPVSMSVSLGGQVSISCRSSQSLVHNNGNTYVSWYIQKPSQSPQLLIYKVSNRFSGISDRFSGSGSGTDFTLKISRVEPDDLGVYYCGQGTQDPYTFGAGTKLELK
notes: single Fab on human IgG1 Fc heterodimerized by knobs-into-hole; also called rCE116H/rCE115L
Usually Kd stands for the equilibrium constant for the complex coming apart. The low end stands for a tighter complex, the high end for a looser complex. Broadly, the koff is a measure of how fast the partners let go of each other. As usually defined, the kon is the second-order rate constant of association. A higher kon goes with faster complex formation. Consider B2, for which, in assay [1], the Kd amounted to 100 nM, the off-rate (koff) was found to be 0.006 s⁻¹ and the on-rate constant (kon) is 59000 M⁻¹ s⁻¹. For the same molecule, in assay [2] (setting [4]), the “Affinity for human CD3 ka” value stood at 59000 M⁻¹ s⁻¹ and the “Affinity for human CD3 kd” value turned out to be 0.006 s⁻¹.

B3: antibody-6: anti-human CD3ε chain and anti-human GPC3 bispecific antibody (antibody)
heavy: QVQLVESGGGVVQPGRSLRLSCAASGFTFSNAWMHWVRQAPGKGLEWVANIKAKSNNYATYYAESVKGRFTISRDDSKNSLYLQMNSLKTEDTAVYYCRYVHYGAYYGVDAWGQGTTVTVSSASTKGPSVFPLAPSSKSTSGGTAALGCLVKDYFPEPVTVSWNSGALTSGVHTFPAVLQSSGLYSLSSVVTVPSSSLGTQTYICNVNHKPSNTKVDKKVEPKSCDKTHTCPPCPAPEAAGGPSVFLFPPKPKDTLMISRTPEVTCVVVDVSHEDPEVKFNWYVDGVEVHNAKTKPREEQYASTYRVVSVLTVLHQDWLNGKEYKCKVSNKALPAPIEKTISKAKGQPREPQVYTLPPSRCELTKNQVSLSCAVKGFYPSDIAVEWESNGQPENNYKTTPPVLDSDGSFFLVSKLTVDKSRWQQGNVFSCSVMHEALHNHYTQKSLSLSPDYKDDDDK
light: DIVMTQSPLSLPVTPGEPASISCRSSQSLVHSNRNTYLHWYQQKPGQAPRLLIYKVSNRFSGVPDRFSGSGSGTDFTLKISRVEAEDVGVYYCGQGTQVPYTFGQGTKLEIKRTVAAPSVFIFPPSDEQLKSGTASVVCLLNNFYPREAKVQWKVDNALQSGNSQESVTEQDSKDSTYSLSSTLTLSKADYEKHKVYACEVTHQGLSSPVTKSFNRGEC
chain 1: DIVMTQSPLSLPVTPGEPASISCRSSQSLVHSNRNTYLHWYQQKPGQAPRLLIYKVSNRFSGVPDRFSGSGSGTDFTLKISRVEAEDVGVYYCSQNTHVPPTFGQGTKLEIKSSASTKGPSVFPLAPSSKSTSGGTAALGCLVKDYFPEPVTVSWNSGALTSGVHTFPAVLQSSGLYSLSSVVTVPSSSLGTQTYICNVNHKPSNTKVDKKVEPKSCDKTHTCPPCPAPEAAGGPSVFLFPPKPKDTLMISRTPEVTCVVVDVSHEDPEVKFNWYVDGVEVHNAKTKPREEQYASTYRVVSVLTVLHQDWLNGKEYKCKVSNKALPAPIEKTISKAKGQPREPQVCTLPPSRDELTKNQVSLWCLVKGFYPSDIAVEWESNGQPENNYKTTPPVLDSDGSFFLYSKLTVDKSRWQQGNVFSCSVMHEALHNHYTQKSLSLSPHHHHHHHH
chain 2: QVQLVQSGAEVKKPGASVKVSCKASGYTFTDYEMHWIRQPPGQGLEWIGAIDPKTGDTAYSQKFKGRVTLTADKSTSTAYMELSSLTSEDTAVYYCTRFYSYTYWGQGTLVTVSSASVAAPSVFIFPPSDEQLKSGTASVVCLLNNFYPREAKVQWKVDNALQSGNSQESVTEQDSKDSTYSLSSTLTLSKADYEKHKVYACEVTHQGLSSPVTKSFNRGEC
The molecule B3 had a Kd in assay [2] (soluble human CD3ε chain, Table 12) of 16.9 nM.

B4: antibody-1: anti-human CD3ε chain and anti-human GPC3 bispecific antibody (antibody)
heavy: EVQLVETGGSLVQPGKSLKLTCATSGFTFSNAWMHWVRQSPEKQLEWVAQIKAKSNNYATYYAESVKGRFTISRDDSKSNIYLQMNSLKEEDTAVYYCRYVHYGAYYGVDAWGQGTSVTVSSASTKGPSVFPLAPSSKSTSGGTAALGCLVKDYFPEPVTVSWNSGALTSGVHTFPAVLQSSGLYSLSSVVTVPSSSLGTQTYICNVNHKPSNTKVDKKVEPKSCDKTHTCPPCPAPEAAGGPSVFLFPPKPKDTLMISRTPEVTCVVVDVSHEDPEVKFNWYVDGVEVHNAKTKPREEQYASTYRVVSVLTVLHQDWLNGKEYKCKVSNKALPAPIEKTISKAKGQPREPQVYTLPPSRCELTKNQVSLSCAVKGFYPSDIAVEWESNGQPENNYKTTPPVLDSDGSFFLVSKLTVDKSRWQQGNVFSCSVMHEALHNHYTQKSLSLSPDYKDDDDK
light: DVVMTQTPVSMSVSLGGQVSISCRSSQSLVHNNGNTYVSWYIQKPSQSPQLLIYKVSNRFSGISDRFSGSGSGTDFTLKISRVEPDDLGVYYCGQGTQDPYTFGAGTKLELKRTVAAPSVFIFPPSDEQLKSGTASVVCLLNNFYPREAKVQWKVDNALQSGNSQESVTEQDSKDSTYSLSSTLTLSKADYEKHKVYACEVTHQGLSSPVTKSFNRGEC
chain 1: B3 chain 1
chain 2: B3 chain 2
B4 returned a Kd with human GPC3 (soluble human GPC3, Table 13) of 4.57 nM.
